Reference: paper doi:10.1101/219105

What was measured:
[1] = target: Asp1, untagged, as co-expressed with Asp3 and tagged Asp2 (Streptococcus gordonii) (UniProt Q9AET8); experiment: light scattering
[2] = target: Asp1/2/3 complex (without a tag) (Streptococcus gordonii) (UniProt Q9AET8); experiment: light scattering

Chain of UniProt Q9AET8 (Q9AET8 whole entry): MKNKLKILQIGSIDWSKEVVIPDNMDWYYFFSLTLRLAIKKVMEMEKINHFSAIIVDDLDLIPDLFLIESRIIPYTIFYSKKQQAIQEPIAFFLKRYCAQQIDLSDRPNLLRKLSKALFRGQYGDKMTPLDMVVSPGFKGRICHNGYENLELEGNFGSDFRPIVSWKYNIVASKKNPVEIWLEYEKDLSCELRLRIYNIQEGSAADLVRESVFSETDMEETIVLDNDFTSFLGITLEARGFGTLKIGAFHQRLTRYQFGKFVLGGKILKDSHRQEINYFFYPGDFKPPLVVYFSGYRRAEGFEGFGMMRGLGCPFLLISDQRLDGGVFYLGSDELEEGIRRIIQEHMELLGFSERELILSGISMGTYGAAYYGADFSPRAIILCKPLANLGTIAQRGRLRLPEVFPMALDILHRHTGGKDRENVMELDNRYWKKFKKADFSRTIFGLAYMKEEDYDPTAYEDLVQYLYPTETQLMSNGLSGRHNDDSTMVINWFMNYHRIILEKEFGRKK

Substance	stoichiometry N [1]	stoichiometry N [2]
Asp3 (accessory Sec protein 3) (natural protein)	1	–
Asp1/2/3 complex (without a tag) (from UniProt Q9AET8 1-510)	–	2
